Entries after “also recorded” stand apart in the source; their conditions may differ. Where only a bound is given, the exact number is not on record here.

The record followed here is patent publication US8017326B2, “Methods of modulating cell death based on the Bit-1/AES regulatory pathway” (Sanford-Burnham Medical Research Institute, priority 2002, dated 2011).

The test system of test [1] is Bit1-induced apoptosis in HEK 293 cells. Nature of the test: Co-transfection of Bit1 with anti-apoptotic proteins. The test is classed as cell-based, human. The following applies: HEK 293 cells co-transfected with Bit1. The protocol:
Co-transfections were performed with cells plated on non-coated dishes transfected with 5 μg Bit1 plasmid alone or together with 10 μg dominant negative (DN) R-Ras, or activated H-Ras plasmid (Zou et al., Proc. Natl. Acad. Sci. USA 96: 13813-13818 (1999)). […] Expression of the transfected proteins was confirmed by immunoblotting. Apoptosis was assayed as described above.

The subject of test [2] is CHO cells. Nature of the test: Scoring of rounded-up cells expressing GFP as dead cells. The test is classed as cell-based, Chinese hamster. The protocol:
AES was assayed for pro-apoptotic activity in CHO cells transfected with a green fluorescent protein (GFP)-AES fusion protein. […] However, in HEK 293 cells, which express no detectable Bit1 by immunohistochemistry or Northern analysis, transfection of AES alone was not apoptotic.
Furthermore, apoptosis was measured in cells transfected with Bit1 (5 μg DNA), AES (5 μg DNA) or both (5 μg each). Rounded up cells expressing GFP were scored as dead cells 24 and 48 hours after the transfection.
To determine if TLE1 suppresses apoptosis induced by AES in CHO cells, cells were transfected with GFP-AES or GFP-TLE1 alone, or both. Cell death was assessed by scoring rounded-up cells expressing GFP 48 hours later.

A further test relates to Bcl-2 promoter. The test can be described thus: Bcl-2 promoter reporter assay in CHO cells. The test is classed as cell-based, Chinese hamster. The following applies: CHO cells, 1 μg Bcl-2-luciferase reporter construct, 24 hours in culture. From the text:
The entire CGI-147 open reading frame encodes a 27-kDa protein with no sequence similarity to other proteins. […] To denote this inhibitory transcriptional activity, the Clone-3 gene was denoted Bit1 for Bcl-2 inhibitor of transcription.
(In a reporter assay the amount or activity of a reporter protein is the signal.)

Test [3] concerns CHO cells. Nature of the test: Percentage of GFP-positive detached cells after transfection. The test is classed as cell-based, Chinese hamster. The following applies: 48 hours after transfection, GFP fusion construct. On the procedure: (§1) To determine if Bit1 and AES are both required for apoptosis induction, HEK 293T, HOP92, and CHO cells were transfected with a GFP (vector), GFP-Bit1, or GFP-AES fusion protein constructs, as indicated in FIG. 3E. The cells were examined 48 hours (HEK 293T and CHO) or 72 hours (HOP92) after transfection, and the percentage of GFP-positive detached cells was measured.

Another test concerns HEK 293T cells. The test is described as above. The test is classed as cell-based, human. Conditions: 48 hours after transfection, GFP fusion construct. The protocol:
as §1

Test [4] concerns Heat Shock 70 kD protein 1A. Nature of the test: Northern blot of ecdysone-induced Bit1 or AES cell lines. The test is classed as cell-based, human. The following applies: ecdysone-inducible ECR-293 cell line expressing Bit1 or AES. The protocol:
(§2) To determine whether the Bit1/AES pathway can regulate the transcription of genes other than Bcl-2, two stable cell lines were established expressing either-Bit1 or AES under control of an ecdysone-inducible promoter. To detect genes regulated by Bit1 or AES, probes were prepared from the ecdysone-induced cell lines and used to screen microarrays representing 19,000 human cDNAs. […] Down-regulation of HSP-70 and thymosin 4 in cells induced to express Bit1 or AES was confirmed by Northern blot analysis (see FIG. 7).
(§3) Northern blot analysis was performed as follows. Total RNA (10 μg) was electrophoresed on a 1% agarose-formaldehyde gel and transferred to nitrocellulose filters. The filters were hybridized using the same RNA probes as in the microarray experiments in Rapid-hyb buffer and washed according to the manufacturer's instructions (Amersham-Pharmacia).

A further test has as its system Thymosin β-4. The test is described as above. The class given is cell-based, human. The following applies: ecdysone-inducible ECR-293 cell line expressing Bit1 or AES. The protocol:
as §2, §3

The subject of a further test is 19,000 human cDNAs. Nature of the test: cDNA microarray analysis of ecdysone-induced Bit1 or AES cell lines. The test is classed as cell-based. On the procedure: as §2
cDNA microarray analysis was performed as follows. Total RNA was purified 48 hours after treatment with 10 μM ponasterone A (Invitrogen; San Diego, Calif.) from the ecdysone inducible cell line ECR-293-Bit1 or ECR-293-AES according to the manufacturer's instructions (Qiagen; Valencia, Calif.). cDNA probes were generated and hybridized with a microarray containing 19,000 human cDNAs from Microarray Centre at University Health Network, Ontario Cancer institute. cDNAs were labeled with fluorescent dyes (Cy3 or Cy5) using reverse transcription. Arrays were processed and hybridized essentially as described in Iyer et al., Science 283:83-87 (1999). After hybridization, arrays were scanned to measure fluorescence using a ScanArray 4000 scanner (Perkin Elmer; Meriden, Conn.). Raw data files generated by scanner software were imported into ImaGene and Gene Spring for analysis. Experiments were performed in duplicate using color reversals.

Test [5] has as its system Bit1-induced apoptosis in HEK 293 cells. The test can be described thus: Extracellular matrix proteins and Bit1-induced apoptosis, trypan blue staining. The test is classed as cell-based, human. The following applies: HEK 293 cells plated onto coated dishes, 10 μg Bit1 plasmid, 48 hours. On the procedure: Several extracellular matrix proteins were assayed for the ability to modulate Bit1-mediated apoptosis. Cells were plated onto bacterial culture dishes pre-coated overnight with fibronectin (Chemicon; Temecula; CA), vitronectin (SIGMA; St. Louis, Mo.) or type I collagen (SIGMA), and transfected and assayed for apoptosis as described above.
To analyze integrin involvement in protecting attached cells against the pro-apoptotic effect of Bit1, Bit1 cell lines expressing either α5β1 or αvβ1 as the main fibronectin receptor were compared. The two cell lines attach equally well to fibronectin but, like cytoplasmically truncated α5β1, αvβ1 fails to protect cells against apoptosis induced by serum deprivation (Zhang et al., supra, 1995; and Matter and Ruoslahti, supra, 2001).
Experiments with extracellular matrix proteins were performed as follows. Cells were plated onto uncoated tissue culture plates or onto bacterial culture plates coated with fibronectin, vitronectin or collagen, and allowed to attach in the presence of serum. The attachment was equal on all of these surfaces. The cells were then transfected with 10 μg of Bit1 expression plasmid; where indicated, cells were treated with a control IgG of unrelated specificity or monoclonal anti-human α5 antibody (Chemicon), both at 10 μg/ml. Cell death was measured by trypan blue staining 48 hours after the transfection.

In test [6] the test system is CHO cells. The test can be described thus: Deletion analysis, cell death by trypan blue exclusion. The test is classed as cell-based, Chinese hamster. Conditions: 10 μg construct, trypan blue exclusion 48 hours after transfection. On the procedure:
The amino-terminal portion of Bit1 (residues 16-40) is hydrophobic and can serve as a transmembrane domain or signal peptide sequence. When the hydrophobicity of this portion was reduced by substitution of glycine 22 and glycine 38 by serine, Bit1 apoptotic activity was reduced.
Deletion analysis was performed as follows. The indicated deletion mutants were cloned into vector pEGFP-C1, and 10 μg of each plasmid construct transfected into CHO cells. Cell death was measured by trypan blue exclusion 48 hours after transfection.
To delineate the pro-apoptotic domain of AES, a series of AES deletion mutants was prepared as amino-terminal fusions with GFP in vector pEGFP-C1. Various AES deletion constructs (10 μg) were transfected into CHO cells, and cell death measured by trypan blue exclusion 48 hours after transfection.

B1: p35: caspase inhibitor protein, transfected expression construct (protein, UniProt P08160 1-299, looked up)
Early 35 kDa protein: MCVIFPVEIDVSQTIIRDCQVDKQTRELVYINKIMNTQLTKPVLMMFNISGPIRSVTRKNNNLRDRIKSKVDEQFDQLERDYSDQMDGFHDSIKYFKDEHYSVSCQNGSVLKSKFAKILKSHDYTDKKSIEAYEKYCLPKLVDERNDYYVAVCVLKPGFENGSNQVLSFEYNPIGNKVIVPFAHEINDTGLYEYDVVAYVDSVQFDGEQFEEFVQSLILPSSFKNSEKVLYYNEASKNKSMIYKALEFTTESSWGKSEKYNWKIFCNGFIYDKKSKVLYVKLHNVTSALNKNVILNTIK
Take B1: the “effect on apoptosis induced by Bit1” value in test [1] is on record as “little or no effect”.

B2: TLE2: TLE family protein (protein, UniProt Q04725 1-743, looked up)
Transducin-like enhancer …: MYPQGRHPTPLQSGQPFKFSILEICDRIKEEFQFLQAQYHSLKLECEKLASEKTEMQRHYVMYYEMSYGLNIEMHKQAEIVKRLSGICAQIIPFLTQEHQQQVLQAVERAKQVTVGELNSLIGQQLQPLSHHAPPVPLTPRPAGLVGGSATGLLALSGALAAQAQLAAAVKEDRAGVEAEGSRVERAPSRSASPSPPESLVEEERPSGPGGGGKQRADEKEPSGPYESDEDKSDYNLVVDEDQPSEPPSPATTPCGKVPICIPARRDLVDSPASLASSLGSPLPRAKELILNDLPASTPASKSCDSSPPQDASTPGPSSASHLCQLAAKPAPSTDSVALRSPLTLSSPFTTSFSLGSHSTLNGDLSVPSSYVSLHLSPQVSSSVVYGRSPVMAFESHPHLRGSSVSSSLPSIPGGKPAYSFHVSADGQMQPVPFPSDALVGAGIPRHARQLHTLAHGEVVCAVTISGSTQHVYTGGKGCVKVWDVGQPGAKTPVAQLDCLNRDNYIRSCKLLPDGRSLIVGGEASTLSIWDLAAPTPRIKAELTSSAPACYALAVSPDAKVCFSCCSDGNIVVWDLQNQTMVRQFQGHTDGASCIDISDYGTRLWTGGLDNTVRCWDLREGRQLQQHDFSSQIFSLGHCPNQDWLAVGMESSNVEILHVRKPEKYQLHLHESCVLSLKFASCGRWFVSTGKDNLLNAWRTPYGASIFQSKESSSVLSCDISRNNKYIVTGSGDKKATVYEVVY
In the case of B2, the “effect on apoptosis induced by AES” value with CHO cells [2] (rounded-up GFP cells scored 48 hours later) is reported as “modestly suppresses”.

B3: AES: human AES, 197 residue Groucho/TLE family protein (SEQ ID NO:6) that associates with Bit1 (protein, listed as Homo sapiens)
chain: MMFPQSRHSGSSHLPQQLKFTTSDSCDRIKDEFQLLQAQYHSLKLECDKLASEKSEMQRHYVMYYEMSYGLNIEMHKQAEIVKRLNGICAQVLPYLSQEHQQQVLGAIERAKQVTAPELNSIIRQQLQAHQLSQLQALALPLTPLPVGLQPPSLPAVSAGTGLLSLSALGSQAHLSKEDKNGHDGDTHQEDDGEKSD
Regarding B3, in the test with Bcl-2 promoter, the Bcl-2 promoter activity result is recorded as “down-regulate”. The “apoptosis induction in CHO cells” value with CHO cells [3] is listed as “induced apoptosis”. In addition, the “effect on viability of 293T cells” value with HEK 293T cells is “no effect on the viability”. In addition, the “Northern result, suppression of Heat Shock 70 kD protein 1A” value in test [4] amounted to 3 fold. For the same molecule, the “Northern result, suppression of Thymosin β-4” value in the test on Thymosin β-4 is 4 fold. In the test on CHO cells [2] (GFP-AES fusion protein), the “time within which CHO cells receiving GFP-AES died” value was not above 48 h. Moreover, the Bcl-2 expression entry in the test on 19,000 human cDNAs (Bit1 and AES stable cell lines) is “not measurably altered”. In addition, in the test with 19,000 human cDNAs (at least a two-fold induction, value is the gene), the “Microarray result: gene induced” value is recorded as “DNA replication licensing factor; also recorded: NIK-related kinase 17; also recorded: CMP-N-acetylneuraminic acid”. In addition, the “Microarray result: gene suppressed” value with 19,000 human cDNAs (at least a two-fold suppression, value is the gene) is listed as “Heat shock 70 KD protein 1A; also recorded: Thymosin β-4; also recorded: KCNAB2; also recorded: FLJ10386; also recorded: NET-5; also recorded: SRY-related HMG-box gene 4”.

B4: vitronectin: extracellular matrix protein coated on culture dishes (SIGMA) (protein, UniProt P04004 20-478, looked up)
Vitronectin: DQESCKGRCTEGFNVDKKCQCDELCSYYQSCCTDYTAECKPQVTRGDVFTMPEDEYTVYDDGEEKNNATVHEQVGGPSLTSDLQAQSKGNPEQTPVLKPEEEAPAPEVGASKPEGIDSRPETLHPGRPQPPAEEELCSGKPFDAFTDLKNGSLFAFRGQYCYELDEKAVRPGYPKLIRDVWGIEGPIDAAFTRINCQGKTYLFKGSQYWRFEDGVLDPDYPRNISDGFDGIPDNVDAALALPAHSYSGRERVYFFKGKQYWEYQFQHQPSQEECEGSSLSAVFEHFAMMQRDSWEDIFELLFWGRTSAGTRQPQFISRDWHGVPGQVDAAMAGRIYISGMAPRPSLAKKQRFRHRNRKGYRSQRGHSRGRNQNSRRPSRATWLSLFSSEESNLGANNYDDYRMDWLVPATCEPIQSVFFFSGDKYYRVNLRTRRVDTVDPPYPRSIAQYWLGCPAPGHL
B4: in test [5], the “protection from Bit1-induced apoptosis” value is given as “largely protected”.

B5: AES residues 106-197: AES deletion mutant, amino-terminal fusion with GFP (protein, UniProt Q08117 106-197, looked up, fragment)
chain: GAIERAKQVTAPELNSIIRQQLQAHQLSQLQALALPLTPLPVGLQPPSLPAVSAGTGLLSLSALGSQAHLSKEDKNGHDGDTHQEDDGEKSD
modifications: GFP fusion
notes: AES deletion mutant, amino-terminal fusion with GFP
As to B5, the “pro-apoptotic activity of deletion constructs” value in the test with CHO cells [6] is given as “no apoptotic activity”.
